Laboratory results taken from article doi:10.1101/2020.08.31.274639.

Molecular target: SARS-CoV-2 main protease 3CLpro (SARS-CoV-2)
Experiment: crystal structure

SARS-CoV-2 main protease 3CLpro (enzyme)
stoichiometry N: 2
